Data taken from PMC3549248, “Charcot–Marie–Tooth type 2B disease-causing RAB7A mutant proteins show altered interaction with the neuronal intermediate filament peripherin” (Acta Neuropathologica, 2012).
Each block holds one binder with its values, some of them ahead of it.

How the values were obtained:
HA-tagged RAB7A N161T = molecular target: T1, HA-tagged RAB7A N161T (UniProt P18067 1-207, N161T); assay: co-IP; Neuro2A cells transfected with HA- or MYC-tagged RAB7A; RIPA lysate; anti-HA or anti-MYC resin 1 h at 4 °C; blot for endogenous peripherin; settings: partners not purified
T1 construct: RAB7A with a CMT2B disease mutation; plasmid described previously; also called disease-causing mutant; source: Neuro2A or PC12 cells, transfected, in lysate

HA-tagged RAB7A L129F = molecular target: T2, HA-tagged RAB7A L129F (UniProt P18067 1-207, L129F); assay: as above; settings: partners not purified
T2 construct: RAB7A with a CMT2B disease mutation; plasmid described previously; also called disease-causing mutant; source: Neuro2A or PC12 cells, transfected, in lysate

HA-tagged RAB7A V162M = molecular target: T3, HA-tagged RAB7A V162M (UniProt P18067 1-207, V162M); assay: as above; settings: partners not purified
T3 construct: RAB7A with a CMT2B disease mutation; plasmid described previously; also called disease-causing mutant; source: Neuro2A or PC12 cells, transfected, in lysate

HA-tagged RAB7A K157N = molecular target: T4, HA-tagged RAB7A K157N (UniProt P18067 1-207, K157N); assay: as above; settings: partners not purified
T4 construct: RAB7A with a CMT2B disease mutation; plasmid described previously; also called disease-causing mutant; source: Neuro2A or PC12 cells, transfected, in lysate

His-tagged RAB7A L129F = molecular target: T5, His-tagged RAB7A L129F (UniProt P18067 1-207, L129F); assay: pull-down; 20 μg purified His-tagged RAB7A bound to NiNTA resin, incubated with Neuro2A cell extracts at 4 °C for 1 h; blot for peripherin; settings: one partner purified
T5 construct: RAB7A with a CMT2B disease mutation, from E. coli; The pull-down text says 'the CMT2B RAB7A mutants'; also called CMT2B RAB7A mutant L129F

His-tagged RAB7A V162M = molecular target: T6, His-tagged RAB7A V162M (UniProt P18067 1-207, V162M); assay: as above; settings: one partner purified
T6 construct: RAB7A with a CMT2B disease mutation, from E. coli; The pull-down text says 'the CMT2B RAB7A mutants'; also called CMT2B RAB7A mutant V162 M

His-tagged RAB7A K157N = molecular target: T7, His-tagged RAB7A K157N (UniProt P18067 1-207, K157N); assay: as above; settings: one partner purified
T7 construct: RAB7A with a CMT2B disease mutation, from E. coli; The pull-down text says 'the CMT2B RAB7A mutants'; also called CMT2B RAB7A mutant K157 N

His-tagged RAB7A Q67L = molecular target: T8, His-tagged RAB7A Q67L (UniProt P18067 1-207, Q67L); assay: as above; settings: one partner purified
T8 construct: RAB7A constitutively active mutant, from E. coli; also called constitutively active RAB7A Q67L mutant

His-tagged RAB7A N161T = molecular target: T9, His-tagged RAB7A N161T (UniProt P18067 1-207, N161T); assay: as above; settings: one partner purified
T9 construct: RAB7A with a CMT2B disease mutation, from E. coli; The pull-down text says 'the CMT2B RAB7A mutants'; also called CMT2B RAB7A mutant N161T

[1] = molecular target: T10, pGADT7Rec-peripherin, P41219; assay: yeast two-hybrid β-galactosidase liquid assay; settings: chain shown with the change; ONPG as substrate; parent: est. 80; read off a plot
T10 chain: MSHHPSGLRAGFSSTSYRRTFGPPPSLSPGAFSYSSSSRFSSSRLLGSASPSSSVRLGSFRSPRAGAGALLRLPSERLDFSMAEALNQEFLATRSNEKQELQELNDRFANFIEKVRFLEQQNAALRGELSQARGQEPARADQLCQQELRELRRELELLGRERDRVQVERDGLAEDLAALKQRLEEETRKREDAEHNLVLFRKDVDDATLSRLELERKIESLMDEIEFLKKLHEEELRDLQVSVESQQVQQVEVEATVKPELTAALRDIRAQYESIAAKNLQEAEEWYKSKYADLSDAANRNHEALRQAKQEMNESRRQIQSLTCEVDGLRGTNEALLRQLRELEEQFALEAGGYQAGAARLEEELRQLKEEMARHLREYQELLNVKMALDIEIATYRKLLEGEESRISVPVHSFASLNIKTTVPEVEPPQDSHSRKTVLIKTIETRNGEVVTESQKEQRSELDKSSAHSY

B3: pGBKT7-RAB7A wt, P18067 N161T (protein)
chain: MTSRKKVLLKVIILGDSGVGKTSLMNQYVNKKFSNQYKATIGADFLTKEVMVDDRLVTMQIWDTAGQERFQSLGVAFYRGADCCVLVFDVTAPNTFKTLDSWRDEFLIQASPRDPENFPFVVLGNKIDLENRQVATKRAQAWCYSKNNIPYFETSAKEAITVEQAFQTIARNALKQETEVELYNEFPEPIKLDKNDRAKTSAESCSC
response (relative units) [1]: 102

B4: pGBKT7-RAB7A wt, P18067 T22N (protein)
chain: MTSRKKVLLKVIILGDSGVGKNSLMNQYVNKKFSNQYKATIGADFLTKEVMVDDRLVTMQIWDTAGQERFQSLGVAFYRGADCCVLVFDVTAPNTFKTLDSWRDEFLIQASPRDPENFPFVVLGNKIDLENRQVATKRAQAWCYSKNNIPYFETSAKEAINVEQAFQTIARNALKQETEVELYNEFPEPIKLDKNDRAKTSAESCSC
response (relative units) [1]: 115

B5: pGBKT7-RAB7A wt, P18067 K157N (protein)
chain: MTSRKKVLLKVIILGDSGVGKTSLMNQYVNKKFSNQYKATIGADFLTKEVMVDDRLVTMQIWDTAGQERFQSLGVAFYRGADCCVLVFDVTAPNTFKTLDSWRDEFLIQASPRDPENFPFVVLGNKIDLENRQVATKRAQAWCYSKNNIPYFETSANEAINVEQAFQTIARNALKQETEVELYNEFPEPIKLDKNDRAKTSAESCSC
response (relative units) [1]: 98

Continued, values first:

co-immunoprecipitated peripherin relative to RAB7A wt (HA-tagged RAB7A N161T): ~60 % more than RAB7A wt
co-immunoprecipitated peripherin relative to RAB7A wt (HA-tagged RAB7A L129F): ~60 % more than RAB7A wt
co-immunoprecipitated peripherin relative to RAB7A wt (HA-tagged RAB7A V162M): ~60 % more than RAB7A wt
co-immunoprecipitated peripherin relative to RAB7A wt (HA-tagged RAB7A K157N): ~60 % more than RAB7A wt
pulled-down peripherin relative to RAB7A wt (His-tagged RAB7A L129F): 2 fold of RAB7A wt
pulled-down peripherin relative to RAB7A wt (His-tagged RAB7A V162M): 2 fold of RAB7A wt
pulled-down peripherin relative to RAB7A wt (His-tagged RAB7A K157N): 2 fold of RAB7A wt
pulled-down peripherin relative to RAB7A wt (His-tagged RAB7A Q67L): 2 fold of RAB7A wt
pulled-down peripherin relative to RAB7A wt (His-tagged RAB7A N161T): 2 fold of RAB7A wt
B1: peripherin (endogenous, Neuro2A cells) (natural protein, mouse (endogenous in Neuro2A), UniProt P15331 1-475, looked up)
chain: MPSSASMSHHHSSGLRSSISSTSYRRTFGPPPSLSPGAFSYSSSSRFSSSRLLGSGSPSSSARLGSFRAPRAGALRLPSERLDFSMAEALNQEFLATRSNEKQELQELNDRFANFIEKVRFLEQQNAALRGELSQARGQEPARADQLCQQELRELRRELELLGRERDRVQVERDGLAEDLAALKQRLEEETRKREDAEHNLVLFRKDVDDATLSRLELERKIESLMDEIEFLKKLHEEELRDLQVSVESQQVQQVEVEATVKPELTAALRDIRAQYENIAAKNLQEAEEWYKSKYADLSDAANRNHEALRQAKQEMNESRRQIQSLTCEVDGLRGTNEALLRQLRELEEQFALEAGGYQAGAARLEEELRQLKEEMARHLREYQELLNVKMALDIEIATYRKLLEGEESRISVPVHSFASLSLKTTVPEMEPLQDSHSKKMVLIRTIETRDGEKVVTESQKEQHSDLDKSSIHSY
notes: peripherin endogenous in mouse Neuro2A neuroblastoma cells, detected with anti-peripherin antibodies; main form of 58 kDa (Per-58); also called Per-58; source: endogenous, Neuro2A lysate

response (relative units) [1]: 99
B2: pGBKT7-RAB7A wt, P18067 V162M (protein)
chain: MTSRKKVLLKVIILGDSGVGKTSLMNQYVNKKFSNQYKATIGADFLTKEVMVDDRLVTMQIWDTAGQERFQSLGVAFYRGADCCVLVFDVTAPNTFKTLDSWRDEFLIQASPRDPENFPFVVLGNKIDLENRQVATKRAQAWCYSKNNIPYFETSAKEAINMEQAFQTIARNALKQETEVELYNEFPEPIKLDKNDRAKTSAESCSC
